Test [1] deals with T1, Stat3-4M (Homo sapiens, UniProt P40763, C687A/Q692L/S691A/Y657F).
T1 construct: made in house; host or cells: Sf9 insect cells (baculovirus, pFastBac1)
The experiment in a line: Phosphopeptide affinity immunoblot (peptide pull-down). Type of test: binding. The conditions noted are these: compared with wild type Stat3. How it is done: (§1) NeutrAvidin agarose (40 μl; Pierce) was incubated with 10 μg of biotinylated peptide in 300 μl of Buffer A (20 mM HEPES pH 7.5, 20 mM NaF, 1 mM Na3VO4, 1 mM Na4P2O7, 1 mM EDTA, 1 mM EGTA, 20% glycerol, 0.05% NP-40, 1 mM DTT, 1 μg/ml leupeptin, 1 μg/ml aprotinin, 0.5 mM phenylmethylsulfonyl fluoride, 100 mM NaCl) at 4° C. for 2 h and washed with Buffer A 3 times. The NeutrAvidin-peptide complex was then mixed with His-tagged Stat3 protein (5 μg) in 1 ml of Buffer A (without NaCl and NP-40) at 4° C. for 2 h and washed thoroughly. Bound proteins were separated and immunoblotted using Stat3 monoclonal antibody (mAb).
NeutrAvidin agarose was incubated with the indicated biotinylated peptides (see Table 2 for exemplary sequences) or no peptide (CON) as control, washed thoroughly and mixed with identical amounts of wild type or mutant Stat3 proteins as indicated. Bound proteins were separated by SDS-PAGE and immunoblotted using Stat3 mAb. Lane ST represents purified wild type Stat3 (0.6 μg) loaded directly onto the gel as positive control.
Stat3 proteins in which mutations were introduced to alter side chains from charged or polar to non-polar within amino acid residues were predicted in each model to be critical for Stat3 binding (FIG. 1B). The recombinant Stat3 proteins were expressed in Sf9 insect cells and purified to equivalent levels using Ni-NTA resin (FIG. 1C).
For orientation: Immunoblotting shows a protein as a band on a membrane.

The target in a further test is T2, Stat3-3M+K591L (Homo sapiens, UniProt P40763, E638L/K591L/Y640F/Y657F).
T2 construct: made in house; host or cells: Sf9 insect cells (baculovirus, pFastBac1)
The description is as above. Type of test: binding. How it is done:
as §1
(§2) To test the pocket 1 component of the two models and to ensure that the peptide pull-down system was sufficiently sensitive to detect reduced binding of Stat3 containing mutations in pocket 2, either K591L or R609L was added to the 3M mutant to generate Stat3-3M+K591L and Stat3-3M+R609L.
(§3) To test the pocket 1 component of the two models and to ensure that our peptide pull-down system was sufficiently sensitive to detect reduced binding of Stat3 containing mutations in pocket 2, either K591L or R609L was added to the 3M mutant to generate Stat3-3M+K591L and Stat3-3M+R609L.

For a further test, the target named is T3, Stat3-3M+R609L (Homo sapiens, UniProt P40763, E638L/R609L/Y640F/Y657F).
T3 construct: made in house; host or cells: Sf9 insect cells (baculovirus, pFastBac1)
The description is as above. It counts as binding. How it is done: as §1, §2, §3

The target in test [2] is T4, Stat3-E638P (Homo sapiens, UniProt P40763, E638P).
T4 construct: made in house; host or cells: Sf9 insect cells (baculovirus)
Described as above. Type of test: binding. How it is done:
as §1
In FIG. 5C, NeutrAvidin agarose was incubated with the indicated biotinylated dodecapeptides (see Table 2 for sequence) or no peptide (CON) as control, washed thoroughly and mixed with wild type Stat3 protein. Bound proteins were separated by SDS-PAGE and immunoblotted using Stat3 mAb. Lane ST represents purified wild type Stat3 (0.6 μg) loaded directly onto the gel as a positive control.
To test the contribution of the E638 amide hydrogen to binding to G-CSFR Y704 and Y744 phosphododecapeptide, Stat3-E638P was generated by site-directed mutagenesis, which eliminated the amide hydrogen donor predicted to bind with oxygen within the +3 Q side chain.

For test [3], the target named is T5, wild type Stat3 (Homo sapiens, UniProt P40763).
T5 construct: made in house; host or cells: Sf9 insect cells (baculovirus, pFastBac1)
The description is as above. It counts as binding. Conditions: purified wild type Stat3. How it is done:
as §1
Each peptide was incubated with equal amounts of purified wild type Stat3 protein in peptide pull-down assays (FIG. 1). NeutrAvidin agarose was incubated with the indicated biotinylated peptides (see Table 2 for sequence) or no peptide (CON) as control, washed thoroughly and mixed with identical amount of wild type Stat3. Bound proteins were separated by SDS-PAGE and immunoblotted using Stat3 mAb. Lane ST represents purified wild type Stat3 (0.6 μg) loaded directly onto the gel as positive control. […] Thus, Q at the +3 position of Y1068 phosphopeptide is required for Stat3 binding and appears to be as important for Stat3 binding as phosphorylation on tyrosine. […]

The target of test [4] is T5, wild type Stat3. The experiment in a line: Mirror resonance affinity assay (resonant mirror biosensor). It counts as binding. The protocol:
(§4) Kinetics experiments were performed using an lasys Auto+ resonant mirror biosensor (Affinity Sensor, Paramus, N.J.) (see Sadowski et. al, 1986). Briefly, two-welled cuvettes coated on the bottom of each well with biotin were purchased from Affinity Sensor and prepared for immobilization of biotinylated peptides by coating each surface with 0.04 mg/ml NeutrAvidin (Pierce) and washing with PBS-T (20 mM Na Phosphate, 0.05% Tween-20). Biotinylated peptide (5 μg) was added into each well—experimental peptide to one well and control peptide to the other—and change in arc seconds monitored simultaneously in both wells using the biosensor until stable followed by washing with PBS-T. Real-time binding of Stat3 was conducted at 25° C. at a stir speed of 70 for 10 min starting at the lowest concentration of Stat3. The wells were washed out with three changes of 60 μl PBS-T, and dissociation was allowed to proceed for 5 min. Each well bottom was regenerated by washing with […] of 100 mM formic acid for 2 min and equilibrated with PBS-T for the next round of association assay. Data were collected automatically and analyzed with the FASTplot and GraFit software (see Sheinerman et. al, 2003).
(§5) Mirror resonance affinity assay. Two cells of a biotin-coated cuvette pretreated with saturating amounts of NeutrAvidin. One well of the cuvette was pretreated with biotinylated phosphopeptide based on Y1068 (pY1068, left panel), while the other well was pretreated with biotinylated non-phosphorylated peptide Y1068 (Y1068, right panel) as a control for non-specific binding. Wild type or mutated Stat3 protein was added in the concentrations indicated to each of the two cells and mirror resonance measurements recorded continuously for 10 min as shown.
To obtain quantitative kinetic information about the binding of Stat3 to G-CSFR Y704 and Y744 including association rates (kass), disassociation rates (kdiss) and dissociation equilibrium constants (KD), real-time affinity measurements using a mirror resonance biosensor were performed. The biosensor exploits surface plasmon resonance to measure in real time the alteration in the angle of a laser light reflected from a surface upon which binding events are occurring. Biotinylated peptides were immobilized onto the bottom surface of cuvette wells pre-coated with NeutrAvidin. The interaction of peptides with Stat3 added at different concentrations was measured in real time as altered deflection of a laser light striking the bottom surface of the cuvette; the alterations in the deflection angle measured in arc seconds was analyzed with GraFit software. […] The slightly lower KD for Y704 vs. Y744 is attributable to a faster association rate of Stat3 binding to this phosphododecapeptide.

Test [5] deals with T6, Stat3-3M (Homo sapiens, UniProt P40763, E638L/Y640F/Y657F).
T6 construct: made in house; host or cells: Sf9 insect cells (baculovirus, pFastBac1)
The description is as above. It counts as binding. The protocol: as §4, §5

In test [6] the target is T1, Stat3-4M. The description is as above. Type of test: binding. The protocol:
as §4, §5

For test [7], the target named is T7, Stat3-6M (Homo sapiens, UniProt P40763, C687A/E638L/Q692L/S691A/Y640F/Y657F).
T7 construct: made in house; host or cells: Sf9 insect cells (baculovirus, pFastBac1)
The description is as above. Type of test: binding. The protocol: as §4, §5

Test [8] addresses T8, wild type Stat3 (recombinant human Stat3alpha with N-terminal 6-histidine tag) (human, UniProt P40763 1-770).
T8 construct: Expressed in Sf9 cells and purified on Ni-NTA for peptide assays; expressed from pcDNA3.1 in 293T cells for the G-CSFR co-immunoprecipitation; also called WT; purified Stat3
The experiment in a line: peptide pull-down: biotinylated peptide on NeutrAvidin agarose, purified His-tagged Stat3 protein added, bound protein immunoblotted with Stat3 mAb.

Test [9] addresses T9, Stat3-3M (human, UniProt P40763 1-770, limits assumed). The description is as above.
The target of test [10] is T10, Stat3-4M (human, UniProt P40763 1-770, limits assumed). The test is described as above.
Test [11] addresses T11, Stat3-6M (human, UniProt P40763 1-770, limits assumed). The description is as above.
Test [12] concerns the target T12, Stat3-E638P (human, UniProt P40763 1-770).
T12 construct: Produced in Sf9 cells; CD spectrum essentially identical to wild type
The description is as above.

The target of test [13] is T8, wild type Stat3 (recombinant human …). The test is described as above. This is another data set of the same source.
The target of test [14] is T9, Stat3-3M. The description is as above. The source holds these as a separate data set.
The target of test [15] is T10, Stat3-4M. Described as above. The source holds these as a separate data set.
For test [16], the target named is T11, Stat3-6M. The test is described as above. The source holds these as a separate data set.
The target in test [17] is T12, Stat3-E638P. The description is as above. This is another data set of the same source.

Read-outs that look alike come from different tables or passages of the source. Non-standard residues stand in square brackets, D forms with d. No end group written: not given here. *: point of attachment. d‑Biotin‑LC = N-terminal biotin (d-Biotin-LC), O=C(CCCC[C@@H]1SC[C@@H]2NC(=O)N[C@@H]21)NCCCCCC(=O)*; pY = N[C@@H](Cc1ccc(OP(=O)(O)O)cc1)C(=O)O

T1 sequence (P40763 whole entry Y657F/C687A/S691A/Q692L): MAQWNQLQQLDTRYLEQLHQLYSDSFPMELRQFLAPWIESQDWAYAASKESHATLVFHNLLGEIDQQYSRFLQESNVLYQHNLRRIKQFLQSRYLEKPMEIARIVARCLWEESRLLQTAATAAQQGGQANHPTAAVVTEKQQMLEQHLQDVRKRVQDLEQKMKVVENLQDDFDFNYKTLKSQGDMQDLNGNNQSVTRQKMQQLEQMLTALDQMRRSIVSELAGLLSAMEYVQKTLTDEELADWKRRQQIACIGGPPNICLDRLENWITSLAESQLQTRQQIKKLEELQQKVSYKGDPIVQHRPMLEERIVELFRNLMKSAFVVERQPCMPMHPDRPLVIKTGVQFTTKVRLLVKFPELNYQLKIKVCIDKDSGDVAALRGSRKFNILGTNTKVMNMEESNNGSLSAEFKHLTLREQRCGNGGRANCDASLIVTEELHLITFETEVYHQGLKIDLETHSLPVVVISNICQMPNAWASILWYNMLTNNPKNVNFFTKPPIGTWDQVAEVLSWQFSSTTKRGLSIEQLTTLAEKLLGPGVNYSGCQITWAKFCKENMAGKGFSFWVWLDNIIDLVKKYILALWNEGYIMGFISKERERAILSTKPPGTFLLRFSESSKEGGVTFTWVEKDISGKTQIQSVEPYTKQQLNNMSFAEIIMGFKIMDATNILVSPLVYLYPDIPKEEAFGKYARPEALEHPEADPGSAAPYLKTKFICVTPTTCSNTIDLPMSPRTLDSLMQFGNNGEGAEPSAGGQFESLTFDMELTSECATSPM
T10 sequence (P40763 other isoform, or with tags, fused parts or gaps limits assumed): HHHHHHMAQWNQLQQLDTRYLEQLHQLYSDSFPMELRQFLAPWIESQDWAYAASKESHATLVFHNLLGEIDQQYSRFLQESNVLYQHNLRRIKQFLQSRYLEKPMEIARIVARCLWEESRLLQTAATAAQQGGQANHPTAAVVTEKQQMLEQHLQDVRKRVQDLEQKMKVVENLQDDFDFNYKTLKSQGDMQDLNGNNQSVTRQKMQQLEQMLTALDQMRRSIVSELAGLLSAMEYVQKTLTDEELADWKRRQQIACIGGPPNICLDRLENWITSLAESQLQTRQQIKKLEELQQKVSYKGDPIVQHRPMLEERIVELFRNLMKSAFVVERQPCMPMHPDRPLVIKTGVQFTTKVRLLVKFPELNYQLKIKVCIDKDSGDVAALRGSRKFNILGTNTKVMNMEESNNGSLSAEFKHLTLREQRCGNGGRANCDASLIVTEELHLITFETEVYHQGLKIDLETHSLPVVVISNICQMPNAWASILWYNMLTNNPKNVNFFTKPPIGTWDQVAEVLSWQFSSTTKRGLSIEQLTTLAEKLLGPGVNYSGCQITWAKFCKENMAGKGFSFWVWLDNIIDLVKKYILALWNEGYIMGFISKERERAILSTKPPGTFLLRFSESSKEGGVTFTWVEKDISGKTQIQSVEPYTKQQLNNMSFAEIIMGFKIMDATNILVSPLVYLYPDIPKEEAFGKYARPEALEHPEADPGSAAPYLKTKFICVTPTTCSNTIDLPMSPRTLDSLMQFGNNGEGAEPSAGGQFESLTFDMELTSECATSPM
T11 sequence (P40763 other isoform, or with tags, fused parts or gaps limits assumed): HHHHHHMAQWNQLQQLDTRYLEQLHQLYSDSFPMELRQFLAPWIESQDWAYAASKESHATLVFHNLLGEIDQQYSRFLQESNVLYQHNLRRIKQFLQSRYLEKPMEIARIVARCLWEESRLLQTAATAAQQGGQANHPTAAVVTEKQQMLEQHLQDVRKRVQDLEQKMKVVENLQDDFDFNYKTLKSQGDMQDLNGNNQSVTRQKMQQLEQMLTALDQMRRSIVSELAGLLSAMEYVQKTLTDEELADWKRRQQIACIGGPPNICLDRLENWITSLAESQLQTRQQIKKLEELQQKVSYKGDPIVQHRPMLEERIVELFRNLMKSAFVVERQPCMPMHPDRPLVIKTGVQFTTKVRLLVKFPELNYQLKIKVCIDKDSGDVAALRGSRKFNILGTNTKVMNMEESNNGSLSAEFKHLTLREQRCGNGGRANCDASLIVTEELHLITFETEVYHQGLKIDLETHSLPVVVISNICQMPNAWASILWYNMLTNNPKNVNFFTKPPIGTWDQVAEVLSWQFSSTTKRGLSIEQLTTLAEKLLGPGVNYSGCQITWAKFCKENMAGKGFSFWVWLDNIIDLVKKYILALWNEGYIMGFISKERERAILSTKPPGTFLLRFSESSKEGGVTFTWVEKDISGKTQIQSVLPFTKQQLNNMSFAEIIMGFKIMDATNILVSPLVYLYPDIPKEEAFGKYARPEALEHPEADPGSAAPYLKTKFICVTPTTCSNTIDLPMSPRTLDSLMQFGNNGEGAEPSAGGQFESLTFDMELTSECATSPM
T12 sequence (P40763 other isoform, or with tags, fused parts or gaps E638P E638P limits assumed): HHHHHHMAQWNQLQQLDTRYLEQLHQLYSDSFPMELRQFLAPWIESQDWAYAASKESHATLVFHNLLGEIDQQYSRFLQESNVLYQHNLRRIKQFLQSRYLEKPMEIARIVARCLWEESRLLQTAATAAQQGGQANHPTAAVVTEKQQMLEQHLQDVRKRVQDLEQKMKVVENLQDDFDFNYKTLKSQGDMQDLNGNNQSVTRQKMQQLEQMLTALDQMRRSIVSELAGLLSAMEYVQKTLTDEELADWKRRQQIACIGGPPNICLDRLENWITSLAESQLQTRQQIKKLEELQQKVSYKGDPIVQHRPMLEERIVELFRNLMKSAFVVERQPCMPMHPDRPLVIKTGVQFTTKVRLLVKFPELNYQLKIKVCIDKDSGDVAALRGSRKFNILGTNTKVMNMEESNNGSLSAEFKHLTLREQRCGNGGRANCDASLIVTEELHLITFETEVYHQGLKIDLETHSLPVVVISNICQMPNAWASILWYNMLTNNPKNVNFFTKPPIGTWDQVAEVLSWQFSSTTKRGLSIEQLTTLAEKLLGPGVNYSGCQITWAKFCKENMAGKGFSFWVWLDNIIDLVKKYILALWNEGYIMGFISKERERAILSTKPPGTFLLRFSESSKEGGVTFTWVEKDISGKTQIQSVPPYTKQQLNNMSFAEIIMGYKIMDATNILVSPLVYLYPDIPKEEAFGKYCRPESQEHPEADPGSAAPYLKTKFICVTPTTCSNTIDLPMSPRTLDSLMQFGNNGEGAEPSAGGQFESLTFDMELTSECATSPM
T8 sequence (P40763 other isoform, or with tags, fused parts or gaps limits assumed): as the sequence (P40763 other isoform, or with tags, fused parts or gaps E638P E638P limits assumed) above, with P644E counted along it
T9 sequence (P40763 other isoform, or with tags, fused parts or gaps limits assumed): as the sequence (P40763 other isoform, or with tags, fused parts or gaps E638P E638P limits assumed) above, with P644L, Y646F, Y663F counted along it
T5 sequence (P40763 whole entry): as the sequence (P40763 whole entry Y657F/C687A/S691A/Q692L) above, with F657Y, A687C, A691S, L692Q counted along it
T4 sequence (P40763 whole entry E638P): as the sequence (P40763 whole entry Y657F/C687A/S691A/Q692L) above, with E638P, F657Y, A687C, A691S, L692Q counted along it
T3 sequence (P40763 whole entry R609L/E638L/Y640F/Y657F): as the sequence (P40763 whole entry Y657F/C687A/S691A/Q692L) above, with R609L, E638L, Y640F, A687C, A691S, L692Q counted along it
T2 sequence (P40763 whole entry K591L/E638L/Y640F/Y657F): as the sequence (P40763 whole entry Y657F/C687A/S691A/Q692L) above, with K591L, E638L, Y640F, A687C, A691S, L692Q counted along it
T7 sequence (P40763 whole entry E638L/Y640F/Y657F/C687A/S691A/Q692L): as the sequence (P40763 whole entry Y657F/C687A/S691A/Q692L) above, with E638L, Y640F counted along it
T6 sequence (P40763 whole entry E638L/Y640F/Y657F): as the sequence (P40763 whole entry Y657F/C687A/S691A/Q692L) above, with E638L, Y640F, A687C, A691S, L692Q counted along it

Take “VQNPV(pY)HNQPLN (VQNPV[pY]HNQPLN) [Y1086 PDP]”: in the test with Stat3-4M [1], the “level of Stat3-4M bound in peptide affinity immunoblot” value is “equal to or greater than wild type Stat3”. For the same molecule, the “binding of Stat3-3M+K591L in peptide pull-down” value in the test with Stat3-3M+K591L is recorded as “elimination of binding”. The “binding of Stat3-3M+R609L in peptide pull-down” value in the test with Stat3-3M+R609L is “elimination of binding”. In the test with Stat3-E638P [2], the “binding of Stat3-E638P in peptide affinity immunoblot” value is “no binding”.

Consider “LPVPEYINQSVP [unphosphorylated Y1068 dodecapeptide]”, for which the “Stat3 detected in peptide pull-down (Stat3 immunoblot)” value in the test with wild type Stat3 [3] is listed as “little to no Stat3 was detected”.

In general, Kd refers to a measure of binding affinity in units of concentration. A low value points to higher affinity. Consider `CC[C@H](C)[C@H](NC(=O)[C@H](Cc1ccc(OP(=O)(O)O)cc1)NC(=O)[C@H](CCC(=O)O)NC(=O)[C@@H]1CCCN1C(=O)[C@@H](NC(=O)[C@@H]1CCCN1C(=O)[C@H](CC(C)C)NC(=O)CCCCCNC(=O)CCCC[C@@H]1SC[C@@H]2NC(=O)N[C@@H]21)C(C)C)C(=O)N[C@@H](CC(N)=O)C(=O)N[C@@H](CCC(N)=O)C(=O)N[C@@H](CO)C(=O)N[C@H](C(=O)N1CCC[C@H]1C(=O)O)C(C)C` [Y1068 PDP, LPVPE(pY)INQSVP], for which the dissociation constant (Kd) amounted to 223 nM at wild type Stat3 [4], 177 nM at Stat3-3M [5], 271 ± 48 nM on Stat3-4M [6] and 249 ± 22 nM on Stat3-6M [7].

In the case of {d‑Biotin‑LC}-PGPGHYLRCDST [Y744 non-phosphorylated dodecapeptide (G-CSFR)], the binding result (in test [8]; with Stat3-3M [9]; with Stat3-4M [10]; with Stat3-6M [11]; in the test with Stat3-E638P [12]) was “no binding” each time.

{d‑Biotin‑LC}-VQNPVYHNQPLN [Y1086 non-phosphorylated dodecapeptide (EGFR)]: the binding result (in [13]; in the test with Stat3-3M [14]; with Stat3-4M [15]; in the test with Stat3-6M [16]; in the test with Stat3-E638P [17]) was “no binding” throughout.
